The results in this text go back to article doi:10.1101/2020.04.08.026906.

The term Kd denotes a measure of binding affinity in units of concentration.

The target in the experiment is C3b (UniProt P01024). Nature of the experiment: SPR. In general terms: Surface plasmon resonance follows binding to a sensor surface in real time, without labels.
Chain of UniProt P01024 (P01024 whole entry, looked up): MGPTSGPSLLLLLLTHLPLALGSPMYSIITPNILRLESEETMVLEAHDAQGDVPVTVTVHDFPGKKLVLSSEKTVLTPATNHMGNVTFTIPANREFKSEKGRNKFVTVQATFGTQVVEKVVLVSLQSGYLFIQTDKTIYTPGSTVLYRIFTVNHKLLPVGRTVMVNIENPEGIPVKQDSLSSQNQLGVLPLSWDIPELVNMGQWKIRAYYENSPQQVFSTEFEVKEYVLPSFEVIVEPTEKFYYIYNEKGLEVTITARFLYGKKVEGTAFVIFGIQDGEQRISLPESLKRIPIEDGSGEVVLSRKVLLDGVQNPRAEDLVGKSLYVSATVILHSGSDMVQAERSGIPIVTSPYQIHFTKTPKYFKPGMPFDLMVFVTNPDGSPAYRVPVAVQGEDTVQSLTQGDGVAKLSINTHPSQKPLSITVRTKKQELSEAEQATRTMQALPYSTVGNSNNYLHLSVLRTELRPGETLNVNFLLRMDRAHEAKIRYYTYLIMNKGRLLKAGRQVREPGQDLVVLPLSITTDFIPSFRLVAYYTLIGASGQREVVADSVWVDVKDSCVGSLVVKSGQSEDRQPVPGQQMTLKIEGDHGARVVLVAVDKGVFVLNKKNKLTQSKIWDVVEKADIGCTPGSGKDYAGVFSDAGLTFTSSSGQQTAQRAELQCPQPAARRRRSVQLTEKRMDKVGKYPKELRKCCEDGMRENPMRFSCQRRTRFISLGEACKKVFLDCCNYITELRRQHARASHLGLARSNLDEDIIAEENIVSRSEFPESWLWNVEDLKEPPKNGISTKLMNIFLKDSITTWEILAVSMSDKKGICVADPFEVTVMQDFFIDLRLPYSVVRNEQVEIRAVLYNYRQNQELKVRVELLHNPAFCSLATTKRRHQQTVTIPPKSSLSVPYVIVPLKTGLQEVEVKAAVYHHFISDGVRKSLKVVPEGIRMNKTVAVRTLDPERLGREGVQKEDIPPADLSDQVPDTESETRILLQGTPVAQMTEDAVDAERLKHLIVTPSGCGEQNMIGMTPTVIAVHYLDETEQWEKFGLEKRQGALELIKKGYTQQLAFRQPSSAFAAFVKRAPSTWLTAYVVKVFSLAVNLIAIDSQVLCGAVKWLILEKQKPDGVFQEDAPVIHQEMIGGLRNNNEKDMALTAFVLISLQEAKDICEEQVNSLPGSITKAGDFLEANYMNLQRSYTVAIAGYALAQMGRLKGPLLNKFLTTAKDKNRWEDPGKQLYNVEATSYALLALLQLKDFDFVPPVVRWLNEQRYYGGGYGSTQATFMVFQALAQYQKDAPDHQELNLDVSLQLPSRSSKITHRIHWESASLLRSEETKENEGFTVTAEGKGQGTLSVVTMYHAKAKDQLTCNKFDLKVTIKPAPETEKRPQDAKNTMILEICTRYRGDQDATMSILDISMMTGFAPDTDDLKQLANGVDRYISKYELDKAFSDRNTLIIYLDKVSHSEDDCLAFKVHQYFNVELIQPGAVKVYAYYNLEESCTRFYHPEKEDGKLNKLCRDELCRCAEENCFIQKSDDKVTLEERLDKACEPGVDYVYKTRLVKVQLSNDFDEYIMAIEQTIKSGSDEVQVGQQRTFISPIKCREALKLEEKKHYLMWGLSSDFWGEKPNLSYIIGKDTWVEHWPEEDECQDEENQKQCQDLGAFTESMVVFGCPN

Substance “plasma derived Factor H (from UniProt P08603 19-1231) (natural protein)” yielded a KD with anti-FH.07.1 Fab' fragments of 1.9 µM and a Kd of 6 µM.
